Measured values taken from patent US20080226630A1 (SYMPHOGEN A S, published 2008).

T1: recombinant RSV protein G, G(B): residues 66-292 of strain 18537 (human respiratory syncytial virus …, UniProt P20896 66-292)
T1 construct: also called soluble recombinant G protein; recombinant protein G
T1 sequence: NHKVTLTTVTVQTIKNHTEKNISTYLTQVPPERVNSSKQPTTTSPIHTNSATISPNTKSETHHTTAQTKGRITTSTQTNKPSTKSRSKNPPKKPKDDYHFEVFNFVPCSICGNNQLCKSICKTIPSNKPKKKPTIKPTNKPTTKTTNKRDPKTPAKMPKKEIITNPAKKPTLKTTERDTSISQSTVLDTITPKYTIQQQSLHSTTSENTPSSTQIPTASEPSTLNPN

B1: Fab fragment of antibody 818 (Fab, V domains shown)
VH: QVTLRESGPAVVKPTETLTLTCAFSGFSLNAGRVGVSWIRQPPGQAPEWLARIDWDDDKAFRTSLKTRLSISKDSSKNQVVLTLSNMDPADTATYYCARTQVFASGGYYLYYLDHWGQGTLVTVSS
VL: DIQMTQSPSSLSASVGDRVTITCRASQTIASYVNWYQQKPGRAPSLLIYAASNLQSGVPPRFSGSGSGTDFTLTISGLQPDDFATYYCQQSYSYRALTFGGGTKVEIKR
B2: Fab fragment of antibody 858 (Fab, V domains shown)
VH: QVQLVQSGAEVKKPGSSVKVSCKASGGSFDGYTISWLRQAPGQGLEWMGRVVPTLGFPNYAQKFQGRVTVTADRSTNTAYLELSRLTSEDTAVYYCARMNLGSHSGRPGFDMWGQGTLVTVSS
VL: DIQMTQSPSSVSASVGDRVTITCQASQDISNYLNWYQQKPGKAPKLLIFDATKLETGVPTRFIGSGSGTDFTVTITSLQPEDVATYYCQHFANLPYTFGQGTKLEIKR
notes: also called Fab clone 858
B3: Fab fragment of antibody 819 (Fab, V domains shown)
VH: QVQLQESGPGLVKPSQTLSLTCTVSSGAISGADYYWSWIRQPPGKGLEWVGFIYDSGSTYYNPSLRSRVTISIDTSKKQFSLKLTSVTAADTAVYYCARDLGYGGNSYSHSYYYGLDVWGRGTTVTVSS
VL: EIVLTQSPATLSLSPGERATLSCRASQSVSSSLAWYQQTPGQAPRLLIYDASYRVTGIPARFSGSGSGIDFTLTISSLEPEDFAVYYCQQRSNWPPGLTFGGGTKVEIKR
B4: Fab fragment of antibody 817 (Fab, V domains shown)
VH: QVQLVESGGGVVQPGRSLRLSCAASGFGFNTHGMHWVRQAPGKGLEWLSIISLDGIKTHYADSVKGRFTISRDNSKNTVFLQLSGLRPEDTAVYYCAKDHIGGTNAYFEWTVPFDGWGQGTLVTVSS
VL: EIVMTQSPATLSASPGERATLSCWASQTIGGNLAWYQQKPGQAPRLLIYGASTRATGVPARFSGSGSGTEFTLAISSLQSEDFAVYYCQQYKNWYTFGQGTKLELKR
notes: also called Fab clone 817
B5: Fab fragment of antibody 735 (Fab, V domains shown)
VH: QVQLQESGPGLVKPSETLSLTCTVSNGAIGDYDWSWIRQSPGKGLEWIGNINYRGNTNYNPSLKSRVTMSLRTSTMQFSLKLSSATAADTAVYYCARDVGYGGGQYFAMDVWSPGTTVTVSS
VL: EIVLTQSPATLSLSPGERATLSCRASQSVNSHLAWYQQKPGQAPRLLIYNTFNRVTGIPARFSGSGSGTDFTLTISSLATEDFGVYYCQQRSNWPPALTFGGGTKVEIKR
notes: also called Fab clone 735
B6: Fab fragment of antibody 831 (Fab, V domains shown)
VH: QVQLVQSGAEVKKPGASVKVSCKASANIFTYAMHWVRQAPGQRLEWMGWINVGNGQTKYSQRFQGRVTITRDTSATTAYMELSTLRSEDTAVYYCARRASQYGEVYGNYFDYWGQGTLVTVSS
VL: DIQMTQSPSTLSASVGDRLTITCRASQNIYNWLAWYQQKPGKAPKLLIYDASTLESGVPSRFSGSGSGTEFTLTISSLQPDDFATYYCQQYNSLSPTFGQGTKVEIKR
notes: also called Fab clone 831
B7: Fab fragment of antibody 825 (Fab, V domains shown)
VH: QVQLVQSGAEVKKPGASVKVSCKVSGYTFTSNGLSWVRQAPGQGFEWLGWISASSGNKKYAPKFQGRVTLTTDISTSTAYMELRSLRSDDTAVYYCAKDGGTYVPYSDAFDFWGQGTMVTVSS
VL: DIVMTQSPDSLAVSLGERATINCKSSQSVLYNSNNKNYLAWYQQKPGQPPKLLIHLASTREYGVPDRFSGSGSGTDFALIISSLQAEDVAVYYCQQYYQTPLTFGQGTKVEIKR
B8: Fab fragment of antibody 810 (Fab, V domains shown)
VH: QVQLVQSGAEVKKSGSSVKVSCRASGGTFGNYAINWVRQAPGQGLEWVGRIIPVFDTTNYAQKFQGRVTITADRSTNTAIMQLSSLRPQDTAMYYCLRGSTRGWDTDGFDIWGQGTMVTVSS
VL: NIQMTQSPSAMSASVGDRVTITCRASQGISNYLVWFQQKPGKVPKRLIYAASSLQSGVPSRFSGSGSGTEFTLTISSLQPEDFATYYCLQHNISPYTFGQGTKLETKR
notes: also called Fab clone 810
B9: Fab fragment of antibody 853 (Fab)
VH: EVQLVQSGAEVKKPGQSLKISCKTSGYIFTNYWIGWVRQRPGKGLEWMGVIFPADSDARYSPSFQGQVTISADKSIGTAYLQWSSLKASDTAIYYCARPKYYFDSSGQFSEMYYFDFWGQGTLVTVSS
light: EIVLTQSPGTLSLSPGERATLSCRASQSVSSNYLAWYQQKPGQAPRLLIYGASSRAAGMPDRFSGSGSGTDFTLTISRLEPEDFAVYYCQQYGNSPLTFGGGTEVEIKRTVAAPSVFIFPPSDEQLKSGTASVVCLLNNFYPREAKVQWKVDNALQSGNSQESVTEQDSKDSTYSLSSTLTLSKADYEKHKVYACEVTHQGLSSPVTKSFNRGEC
notes: also called Fab clone 853
B10: Fab fragment of antibody 816 (Fab)
VH: EVQLLESGGGLVQPGGSLRLSCVASGFTFSTYAMTWVRQAPGKGLEWVSVIRASGDSEIYADSVRGRFTISRDNSKNTVFLQMDSLRVEDTAVYFCANIGQRRYCSGDHCYGHFDYWGQGTLVTVSS
light: DIVMTQSPLSLPVTPGEPASISCRSSQSLLHSDGRYYVDWYLQKPGQSPHLLIYLASNRASGVPDRFTGSGSGTDFTLKISRVEAEDVGVYYCMQGLHTPWTFGQGTKVDIKRTVAAPSVFIFPPSDEQLKSGTASVVCLLNNFYPREAKVQWKVDNALQSGNSQESVTEQDSKDSTYSLSSTLTLSKADYEKHKVYACEVTHQGLSSPVTKSFNRGEC
B11: Fab fragment of antibody 838 (Fab)
VH: QVQLVESGGGVVQPGTSLRLSCAASGFTFSTFGMHWVRQAPGKGLEWVAVISYDGNKKYYADSVKGRFTISRDNSKNTLYLQVNSLRVEDTAVYYCAAQTPYFNESSGLVPDWGQGTLVTVSS
light: DIQMTQSPSSLSASVGDRVSITCRASQGISNYLAWYQQKPGKVPKLLIYAASTLQSGVPSRFSGSGSGTDFTLTISSLQPEDVATYYCQKYNSAPQTFGQGTKVEIKRTVAAPSVFIFPPSDEQLKSGTASVVCLLNNFYPREAKVQWKVDNALQSGNSQESVTEQDSKDSTYSLSSTLTLSKADYEKHKVYACEVTHQGLSSPVTKSFNRGEC
notes: also called Fab clone 838
B12: Fab fragment of antibody 811 (Fab)
VH: QVQLVQSGAVVETPGASVKVSCKASGYIFGNYYIHWVRQAPGQGLEWMAVINPNGGSTTSAQKFQDRITVTRDTSTTTVYLEVDNLRSEDTATYYCARQRSVTGGFDAWLLIPDASNTWGQGTMVTVSS
light: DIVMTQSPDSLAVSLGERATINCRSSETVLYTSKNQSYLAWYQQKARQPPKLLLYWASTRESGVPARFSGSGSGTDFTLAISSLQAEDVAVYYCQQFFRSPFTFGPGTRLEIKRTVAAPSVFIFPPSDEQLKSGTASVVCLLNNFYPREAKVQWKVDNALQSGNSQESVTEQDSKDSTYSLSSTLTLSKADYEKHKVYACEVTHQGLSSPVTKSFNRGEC
notes: also called Fab clone 811
B13: Fab fragment of antibody 796 (Fab)
VH: QVQLVESGGGVVQPGRSLRLSCAASGFSFSHFGMHWVRQVPGKGLEWVAIISYDGNNVHYADSVKGRFTISRDNSKNTLFLQMNSLRDDDTGVYYCAKDDVATDLAAYYYFDVWGRGTLVTVSS
light: DIVMTQTPLSLSVTPGQPASISCRSSQSLLRSDGKTFLYWYLQKPGQSPQPLMYEVSSRFSGVPDRFSGSGSGADFTLNISRVETEDVGIYYCMQGLKIRRTFGPGTKVEIKRTVAAPSVFIFPPSDEQLKSGTASVVCLLNNFYPREAKVQWKVDNALQSGNSQESVTEQDSKDSTYSLSSTLTLSKADYEKHKVYACEVTHQGLSSPVTKSFNRGEC
notes: also called Fab clone 796

target: RSV protein F (recombinant or purified F protein) (human respiratory syncytial virus, …); experiment: SPR Biacore 3000, Fab over amine-coupled recombinant protein F

Question: What does the source list for B1?
Answer: Kd: 0.115 nM; koff: 2.2e-05 s⁻¹; kon: 192000 M⁻¹ s⁻¹; t1/2: 530 min

Question: B2 was tested. Which Kd did it give?
Answer: The Kd was 0.007 nM.

Question: What about the koff of the same binder?
Answer: Its koff is 3.4e-06 s⁻¹.

Question: And the kon?
Answer: Its kon is 497000 M⁻¹ s⁻¹.

Question: And the t1/2?
Answer: Its t1/2 is 3400 min.

Question: B3 was tested. Which Kd did it give?
Answer: The Kd was 0.14 nM.

Question: What about the koff of the same binder?
Answer: The koff was 4.99e-05 s⁻¹.

Question: And the kon?
Answer: The kon was 356000 M⁻¹ s⁻¹.

Question: What about the t1/2 of the same binder?
Answer: The t1/2 was 230 min.

Question: For B4, which Kd is on record?
Answer: The Kd was 0.82 nM.

Question: And the koff?
Answer: The koff was 7.54e-05 s⁻¹.

Question: What about the kon of the same binder?
Answer: The kon was 92000 M⁻¹ s⁻¹.

Question: And the t1/2?
Answer: Its t1/2 is 150 min.

Question: B5 was tested. Which Kd did it give?
Answer: The Kd was 0.226 nM.

Question: What about the koff of the same binder?
Answer: Its koff is 9.18e-05 s⁻¹.

Question: And the kon?
Answer: Its kon is 407000 M⁻¹ s⁻¹.

Question: What about the t1/2 of the same binder?
Answer: The t1/2 was 130 min.

Question: What does the source list for B6?
Answer: Kd: 1.13 nM; koff: 0.00042 s⁻¹; kon: 372000 M⁻¹ s⁻¹; t1/2: 28 min

Question: How did the Kd turn out when B7 was run?
Answer: Its Kd is 0.195 nM.

Question: What about the koff of the same binder?
Answer: Its koff is 0.00015 s⁻¹.

Question: What about the kon of the same binder?
Answer: The kon was 772000 M⁻¹ s⁻¹.

Question: And the t1/2?
Answer: Its t1/2 is 77 min.

Question: What does the source list for B8?
Answer: Kd: 0.2 nM; koff: 0.000348 s⁻¹; kon: 1.74e+06 M⁻¹ s⁻¹; t1/2: 33 min

target: T1, recombinant RSV protein G, G(B): …; experiment: SPR Biacore 3000, Fab over amine-coupled recombinant protein G

Question: B9 was tested. Which Kd did it give?
Answer: The Kd was 0.79 nM.

Question: And the koff?
Answer: The koff was 0.0014 s⁻¹.

Question: What about the kon of the same binder?
Answer: The kon was 1.77e+06 M⁻¹ s⁻¹.

Question: What about the t1/2 of the same binder?
Answer: The t1/2 was 8.25 min.

Question: Which results are given for B10?
Answer: Kd: 0.09 nM; koff: 0.000178 s⁻¹; kon: 2.02e+06 M⁻¹ s⁻¹; t1/2: 65 min

Question: With B11 as the binder, how does the Kd read?
Answer: The Kd was 0.19 nM.

Question: What about the koff of the same binder?
Answer: Its koff is 5.06e-05 s⁻¹.

Question: And the kon?
Answer: Its kon is 264000 M⁻¹ s⁻¹.

Question: What about the t1/2 of the same binder?
Answer: The t1/2 was 230 min.

Question: For B12, which Kd is on record?
Answer: Its Kd is 0.34 nM.

Question: And the koff?
Answer: Its koff is 0.000171 s⁻¹.

Question: What about the kon of the same binder?
Answer: Its kon is 498000 M⁻¹ s⁻¹.

Question: What about the t1/2 of the same binder?
Answer: The t1/2 was 68 min.

Question: For B13, which Kd is on record?
Answer: Its Kd is 0.48 nM.

Question: What about the koff of the same binder?
Answer: Its koff is 0.000403 s⁻¹.

Question: And the kon?
Answer: Its kon is 833000 M⁻¹ s⁻¹.

Question: What about the t1/2 of the same binder?
Answer: Its t1/2 is 28.7 min.
